Target: RhoGDIα S34D (phosphomimetic), bacterially expressed, hexahistidine-tagged (human) (UniProt P52565)
Assay: pull-down

Chain of UniProt P52565 (P52565 whole entry S34D): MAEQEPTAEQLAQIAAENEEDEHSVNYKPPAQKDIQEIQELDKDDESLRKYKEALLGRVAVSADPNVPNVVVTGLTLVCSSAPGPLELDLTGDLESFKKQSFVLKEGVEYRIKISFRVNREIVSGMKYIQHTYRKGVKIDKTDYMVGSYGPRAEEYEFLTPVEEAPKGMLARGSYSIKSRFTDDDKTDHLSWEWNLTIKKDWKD

Q: With “RhoA, endogenous in rat embryo fibroblasts (from UniProt P61589 1-193) (natural protein)” as the substance, how does the reduction of binding against wild-type RhoGDIα read?
A: 75%
